According to patent US20260231954A1, “PESTICIDAL ENZYMES FOR USE ON NEMATODES, INSECTS, AND MOLLUSKS” (priority 2023, published 2026):

What was measured:
[1] = tested on: soybean cyst nematode (SCN, Heterodera glycines); test: Soybean cyst nematode reproduction on soybean after seed treatment, controlled environment (cysts per gram of root tissue or per plant); assay type: in vivo; settings: for % Comparison to Control (figure in parentheses): change vs base control
[2] = tested on: Fall armyworm (Spodoptera frugiperda); test: Diet-surface overlay (DSO) bioassay on Fall armyworm; assay type: in vivo
Procedure: (§1) Diet-surface overlay bioassays are conducted with artificial diet mixes without antibiotics in 1.5 cm^2 cell bioassay trays(s). Artificial diets are commercially available from Southland Products Inc. Diets were prepared by dispersing 0.5 mL of molten diet to each 1.5 cm^2 cell. After solidification, 0.1 mL enzyme treatments were dispersed on top of diet in each cell and the tray was gently rocked in an orbital shaker to spread the liquid uniformly over the diet surface. Trays were placed under clean airflow until the surface of each cell was uniformly dried. One or two 16-cell sections were used per treatment (the number in larvae treated was 16 or 32).
(§2) One healthy first instar larva was placed into each treatment cell, each 16-cell section was covered with a re-sealable lid and incubated at 27° C. and light-dark period of 16:8 hrs. After 7 days, and according to the species, the number of individuals in the following developmental categories was recorded.
(§3) Negative/untreated controls were treated with filtered water and positive controls were treated with lethal doses of Bacillus thuringiensis subsp. Kurstaki (Btk) spores at 1000 ppm.

[3] = tested on: Btk resistant Diamondback moth; test: Diet-surface overlay (DSO) bioassay on Btk resistant Diamondback moth; assay type: in vivo, Plutella xylostella; settings: number of individuals, n = 32, 7 days
Procedure: as §1, §2
Diamondback moth (Plutella xylostella): Dead Larva (lack of movement), Larva Stage I (≤50% relative size), Larva Stage II (100% relative size, full size), Early Pupa (light green color), Late Pupa (light-dark brown color), and Adult.
as §3
However, both neutral proteases reduced the number of individuals reaching adult stage.
The effect of lipase (10× enzyme rate) and free lipases were tested on a Diamondback Moth Btk resistant strain. Free Lipases from Burkholderia cepacia (Bc) and Pseudomonas fluorescens (Pf) were tested along with Lipase (SEQ ID NO: 76) and the results are shown below in Table 45.

[4] = Table 46, number of individuals, n = 32, 7 days
[5] = Table 48, chitinases, Fall armyworm, number of individuals of n = 32, DSO bioassay
[6] = Table 50, esterases, Fall armyworm, number of individuals of n = 32
[7] = Table 50, esterases, Fall armyworm, number of individuals of n = 32, DSO bioassay, dose per treatment in U/mL Diet

B1: Bacillus thuringiensis Lipase 1 (SEQ ID NO: 250): Bacillus thuringiensis Lipase 1 (protein, listed as Bacillus thuringiensis)
chain: YGFVSGVNDVLNPKASNLIKKTDVVAKEKKKTGTLQIVSLGDSLTRGVGDKEGIGYVGRMKEDLQKDYKQKIALTNLAVSGAKMPDLLKQIESNGAQYSIKQADVIVLTIGGNDLFPGWESLGKIDLETYRPDTETFQNEAKKIIEEIRKLNTDSPIFWLGLYNPFEDVEDLKGSSNIVVDWNASLEKLALNDKNVYITPTFDLFQNRGKDLLYSDHFHPNEVGYTYMAERLVQNVVSKLKLEQGGVK
- % Comparison to Control (figure in parentheses) ([1]; Table 19): −25%
- Average cysts per g of root tissue ([1]; Table 19, free enzyme seed treatment, soybean 2830E3): 332.0 cysts per g of root tissue

B2: Lipase: lipase of Table 46, not further identified; probably Lipase (SEQ ID NO: 76) (protein, listed as Bacillus thuringiensis)
chain: MRLMRRCVALLIVFFIMAPMISTNVRAGVVKELKTGFPDQEVFTPGEWFLGQKPANYDENKPPILFVQGRNGNADSWYGKTVYHDINDMYDYALKAGYQTVFIQLYDAAGKGSASQWDNGKLLAQKLEEIYNHFGKKVNIVAHSKGGIDTQAALVGYGANRFVGNVITLATPHHGSNLADLSYSWWAGWLASILGQKDDGTYSLQMGEMAKFRSTIDNNPAAKLNRYYTVTGTSWGPVFSALSMGGLYLSSYGSNDGLVNECSAKLPYGTHLFTDSRFDHDNIRKGSAVFARIEPYLRTANVPVPALVASSTSSNENIEQLNTTSNQSILGGELPQNQWIEQTVAVDKKAEGIVSILTASSDVEVQMISPKGKVYTNKDSVITTGEGESFFGGATIRTFKFDKMDVGEWKVKMMTKQSKDAYLVVSDYKTGAPFVLQMPTKVKANKSEYKLKKSPVAPEMKGDLSITVRVVNKEGKLVSEFNELQNVNNNTFTGALKNIKQPGVYNVTMDIKGMNKEGKSYSRTIVKSVYVEK
modifications: Lipase (Lip1 H192)
- Dead Larva ([2]; Table 46, lipases, number of individuals, n = 32, 7 days): 5
- Larva Stage I [2, 4]: 2
- Larva Stage II [2, 4]: 10
- Larva Stage III [2, 4]: 15
- Larva Stage IV [2, 4]: 0

B3: Chitinase (SEQ ID NO: 185): recombinant chitinase from Akanthomyces lecanii; Acidic Chitinase 1 (Chit1) (protein, listed as Akanthomyces lecanii)
chain: MAKCTSPDRKCPAPLIDAPINSFMTDGWADTDIHWEGDSWNDSGTNIYGCLKQLNILKKHNRNFKVLLSIGGWTYSSNFPAPASTPEGRDTFAKSCVELVKNLGFDGIDIDWEYPKTAEEAGHFVELLAEVRKQLDEYSARAANNYHFELSVACPAGPDNFQKLNISGMDAYLDFWNLMAYDYAGSWDKNSGHQANLYPCKDAPGCTPFSTVAAVDYYTSNGVSPDKLVLGMPLYGRAFENCDGIGQPFQGVGQGTWEQGVYDYKKLPLEGAEEHKDDDSCATYCHNAESRTLVTYDTPELAKTKADFIKERGLGGGMWWESSADKAGDDSLIQVVVSELGGPEALKQQQNCISYPETKYDNLRDGLPDN
modifications: Acidic Chitinase 1 (Chit1-H195)
- Dead Larva ([3]; Table 47, chitinases, rate in mU/mL diet column): 2
- Adult ([3]; Table 47): 1
- Early Pupa ([3]; Table 47): 8
- Larva Stage I ([3]; Table 47): 2
- Larva Stage II ([3]; Table 47): 2
- Late Pupa ([3]; Table 47): 17
- Larva Stage I [2, 5]: 4
- Larva Stage II [2, 5]: 5
- Larva Stage III [2, 5]: 8
- Larva Stage IV [2, 5]: 8
- Dead Larva ([2]; Table 48, chitinases, Fall armyworm, number of individuals of n = 32, DSO bioassay, dose per treatment in mU/mL Diet): 7

B4: Chitinase C (SEQ ID NO: 249): Chitinase C (protein, listed as Bacillus thuringiensis)
chain: DSPKQSQKIVGYFPSWGVYGRNYQVADIDASKLTHLNYAFADICWKGKHGNPSTHPDNPNKQTWNCKESGVPLQNKEVPNGTLVLGEPWADVTKSYPGSGTTWEDCDKYARCGNFGELKRLKAKYPHLKTIISVGGWTWSNRFSDMAADEKTRKVFAESTVAFLRAYGFDGVDLDWEYPGVETIPGGSYRPEDKQNFTLLLQDVRNALNKAGAEDGKQYLLTIASGASQRYADHTELKKISQILDWINIMTYDFHGGWEATSNHNAALYKDPNDPAANTNFYVDGAIDVYTNEGVPVDKLVLGVPFYGRGWKSCGKENNGQYQPCKPGSDGKLASKGTWDDYSTGDTGVYDYGDLTANYVNKNGFVRYWNDTAKVPYLYNATTGTFISYDDNESMKYKTDYIKTKGLSGAMFWELSGDCRTSPKYSCSGPKLLDTLVKELLGGPINQKDTEPPTNVKNIIVTNKTSSSVQLSWTASTDNVGVTEYEITAGEEKWSATTNSITIKNLKPNTEYTFSVIAKDASGNKSHPTALTVKTDEANTTPPDGNGTATFSVTSNWGSGYNFSIIIKNNGTIPIKNWKLEFDYSGNLTQVWDSKISSKTNNHYVITNAGWNGEIPPGGSITIGGAGTGNPAELLNAVISEN
- % Comparison to Control (figure in parentheses) ([1]; Table 18): −22%
- Average cysts per g of root tissue ([1]; Table 18, free enzyme seed treatment): 45.7 cysts per g of root tissue

B5: H6-pytH (SEQ ID NO: 95): recombinant six-histidine tagged esterase pytH from Sphingobium wenxiniae (protein, listed as Sphingobium wenxiniae)
chain: MTVTDIILIHGALNRGACYDAVVPLLEARGYRVHAPDLTGHTPGDGGHLSVVDMEHYTRPVADILARAEGQSILLGHSLGGASISWLAQHHPDKVAGLIYLTAVLTAPGITPETFVLPGEPNRGTPHALDLIQPVDEGRGLQADFSRLERLREVFMGDYPGEGMPPAEQFIQTQSTVPFGTPNPMEGRALEIPRLYIEALDDVVIPIAVQRQMQKEFPGPVAVVSLPASHAPYYSMPERLAEAIADFADAPAEYRQTATKAGPDRPAGADGGRADRADLP
modifications: Esterase (pytH)
- Larva Stage I [2, 6]: 0
- Larva Stage II [2, 6]: 0
- Larva Stage III [2, 6]: 13
- Larva Stage IV [2, 6]: 19
- Dead Larva [2, 7]: 0

B6: Trypsin-like protease (SEQ ID NO: 126): Trichoderma lixii trypsin-like protease (protein, listed as Trichoderma lixii)
chain: AAITPRGSDIVGGTTAALGEFPYIVSLSTGGSHFCGGVLIDSRTVVTAGHCTIDQRASSVKVRAGTLTWASGGTQVGVSSLTLHPSYTVDSQGVPDNDVGVWHLATAIPTSSTIGYATLPASGSDPAAGTTLTVAGWGTTSENSNSLPSTLRKVSVPVVARATCDSDYDGEISNNMFCAAVAAGGKDSCSGDSGGPIIDPSGTLVGVVSWGQGCAERGFPGVYTRLGNYVSFINSNRG
modifications: H182 trypsin-like protease
- Average cysts per g of root tissue ([1]; Table 11, free enzyme seed treatment 2 fl. oz. per unit of seed (ILEVO 0.15 mg active ingredient per seed), soybean P18A98X, 3 weeks after inoculation): 18.6 cysts per g of root tissue

B7: H6-pnbA (SEQ ID NO: 94): recombinant six-histidine tagged esterase pnbA from Bacillus subtilis (protein, listed as Bacillus subtilis)
chain: MTHQIVTTQYGKVKGTTENGVHKWKGIPYAKPPVGQWRFKAPEPPEVWEDVLDATAYGSICPQPSDLLSLSYTELPRQSEDCLYVNVFAPDTPSKNLPVMVWIHGGAFYLGAGSEPLYDGSKLAAQGEVIVVTLNYRLGPFGFLHLSSFNEAYSDNLGLLDQAAALKWVRENISAFGGDPDNVTVFGESAGGMSIAALLAMPAAKGLFQKAIMESGASRTMTKEQAASTSAAFLQVLGINEGQLDKLHTVSAEDLLKAADQLRIAEKENIFQLFFQPALDPKTLPEEPEKAIAEGAASGIPLLIGTTRDEGYLFFTPDSDVHSQETLDAALEYLLGKPLAEKVADLYPRSLESQIHMMTDLLFWRPAVAYASAQSHYAPVWMYRFDWHPKKPPYNKAFHALELPFVFGNLDGLERMAKAEITDEVKQLSHTIQSAWITFAKTGNPSTEAVNWPAYHEETRETLILDSEITIENDPESEKRQKLFPSKGE
modifications: Esterase (pnbA)
- Larva Stage I [2, 6]: 0
- Larva Stage II [2, 6]: 0
- Larva Stage III [2, 6]: 15
- Larva Stage IV [2, 6]: 17
- Dead Larva [2, 7]: 0

B8: Pseudomonas sp. esterase free enzyme concentrate (SEQ ID NO: 248): free enzyme concentrated in an Amicon Ultra 4K filter unit, 4× volumetric concentration (protein, listed as Pseudomonas sp.)
chain: MTEPLILQPVKPADACVIWLHGLGADRYDFLPVAEALQEILLSTRFVLPQAPTRPVTINGGYAMPSWYDIKAMSPARAIDRDELEASADRIIELIEEQRSSGIDASRIFLAGFSQGGAVVYHTAFLKWQGPLGGVLALSTYAPTFSDELELSASQQRIPVLSLHGQFDNVVQNSMGRTAYEYLKAHGVTVTWQEYPMEHEVLPEEIRDIGTWLSERLR
modifications: concentrated
notes: free enzyme concentrated in an Amicon Ultra 4K filter unit, 4× volumetric concentration
- % Comparison to Control (figure in parentheses) ([1]; Table 16): −25%
- Average cysts per g of root tissue ([1]; Table 16, free enzyme or 4x concentrate seed treatment, soybean 2830E3): 182.1 cysts per g of root tissue
